Data reported in patent US20180208664A1 (APOGENIX, published 2018).
Substitutions are numbered along the chain they refer to. Ends that are not written are not given here.

T1: APG293 (human CD95L-T4) (human)
T1 chain: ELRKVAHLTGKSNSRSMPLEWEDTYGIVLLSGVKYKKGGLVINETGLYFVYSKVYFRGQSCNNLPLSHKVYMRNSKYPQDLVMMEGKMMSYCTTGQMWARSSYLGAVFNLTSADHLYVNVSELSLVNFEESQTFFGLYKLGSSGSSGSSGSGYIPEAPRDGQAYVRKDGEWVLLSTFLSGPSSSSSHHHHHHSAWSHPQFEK

T2: peptide C-YMRNSKY (also: immobilized to BSA or ovalbumin)
T2 construct: Printed as 'C-YMRNSKY'; the leading C is read as an added cysteine
T2 peptide: CYMRNSKY

T3: APG296 (human CD95L-RB69) (human)
T3 construct: also called recombinant CD95L; human CD95L (APG296)
T3 chain: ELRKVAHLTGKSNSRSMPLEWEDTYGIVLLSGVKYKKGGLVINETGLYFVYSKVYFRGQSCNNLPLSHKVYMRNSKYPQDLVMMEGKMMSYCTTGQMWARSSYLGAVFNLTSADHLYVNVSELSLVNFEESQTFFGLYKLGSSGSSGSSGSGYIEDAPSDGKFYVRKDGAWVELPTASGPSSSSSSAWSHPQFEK

T4: epitope-comprising peptide YMRNSKYPQD (also: coupled to BSA)
T4 peptide: YMRNSKYPQD

T5: epitope-comprising peptide YMRNSKYPQD (also: coupled to BSA)
T5 peptide: YMRNSKYPQD

T6: APG707 (LIGHT-RB69) (human)
T6 construct: Structurally related TNF-superfamily protein with the same trimerisation scaffold as APG296; also called human LIGHT (APG707)
T6 chain: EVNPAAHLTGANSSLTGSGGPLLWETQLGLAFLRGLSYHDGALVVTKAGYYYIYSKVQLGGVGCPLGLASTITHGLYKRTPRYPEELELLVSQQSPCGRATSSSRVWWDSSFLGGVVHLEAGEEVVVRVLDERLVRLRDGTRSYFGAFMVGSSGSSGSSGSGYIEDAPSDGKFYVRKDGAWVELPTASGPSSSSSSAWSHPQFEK

B1: APG101 (Fc fusion, UniProt P25445 26-173, looked up, not shown: a dimerising Fc or GST)
chain: QVTDINSKGLELRKTVTTVETQNLEGLHHDGQFCHKPCPPGERKARDCTVNGDEPDCVPCQEGKEYTDKAHFSSKCRRCRLCDEGHGLEVEINCTRTQNTKCRCKPNFFCNSTVCEHCDPCTKCEHGIIKECTLTSNTKCKEEGSRSN
B2: rabbit monoclonal anti-CD95L antibody clone 145-12 (antibody, V domains shown)
VH: QSLEESGGDLVKPGASLTLTCTASGFSFSSGYDMCWVRQAPGKGLEWIACIDTDNDATYYASWAKGRFTISKPSSTTVLLQITSLTAADTATYFCATTHGDYVAFKLWGPGTLVTVSS
VL: QVLTQTASSVSAAVGGTVTINCQSSQSVYKNNDLSWYQQKPRQPPKLLIYQASKLASGVPSRFKGSGSGTQFTLTIGDLECDDGATYYCAGGYTASIYAFGGGTEVVVKG
notes: Rabbit monoclonal IgG from a hybridoma subclone; Only VH and VL are tied to the clone by name; also called mAB145-12; mAb145-12
B3: scFv-minibody SEQ ID 38 (scFv)
scFv: EVQLVESGGGLVQPGGSLRLSCAASGFSFSSGYDMCWVRQAPGKGLEWVACIDTDNDATYYASWAKGRFTISKDSSKNTLYLQMNSLRAEDTAVYYCARTHGDYVAFKLWGQGTLVTVSGGGSGGGSGGGSGGGSDIQMTQSPSSLSASVGDRVTITCQSSQSVYKNNDLSWYQQKPGKAPKLLIYQASKLASGVPSRFSGSGSGTDFTLTISSLQPEDFATYYCAGGYTASIYAFGQGTKVEIKGSGSSGQPREPQVYTLPPSREEMTKNQVSLTCLVKGFYPSDIAVEWESQGSPENNYKTTPPVLDSDGSFFLYSKLTVDKSRWQQGNVFSCSVMHEALHNHYTQKSLSLSPGSSSSSSAWSHPQFEK
B4: scFv-minibody SEQ ID 39 (scFv)
scFv: B3 scFv with S63D, W64S, A65V
B5: scFv-minibody SEQ ID 40 (scFv)
scFv: B3 scFv with C36S, A50S, C51A, S63D, W64S, A65V
B6: scFv-minibody SEQ ID 37 (scFv)
scFv: QSLEESGGDLVKPGASLTLTCTASGFSFSSGYDMCWVRQAPGKGLEWIACIDTDNDATYYASWAKGRFTISKPSSTTVLLQITSLTAADTATYFCATTHGDYVAFKLWGPGTLVTVSGGGSGGGSGGGSGGGSQVLTQTASSVSAAVGGTVTINCQSSQSVYKNNDLSWYQQKPRQPPKLLIYQASKLASGVPSRFKGSGSGTQFTLTIGDLESDDGATYYCAGGYTASIYAFGGGTEVVGSGSSGQPREPQVYTLPPSREEMTKNQVSLTCLVKGFYPSDIAVEWESQGSPENNYKTTPPVLDSDGSFFLYSKLTVDKSRWQQGNVFSCSVMHEALHNHYTQKSLSLSPGSSSSSSAWSHPQFEK
B7: scFv-minibody SEQ ID 49 (scFv)
scFv: EVQLVESGGGLVQPGGSLRLSCAASGFSFSDHYWMCWVRQAPGKGLEWVACIYTADSDSYYASWAKGRFTISKDSSKNTLYLQMNSLRAEDTAVYYCARNGAYAGGPYGDLWGQGTLVTVSGGGSGGGSGGGSGGGSDIQMTQSPSSLSASVGDRVTITCKASQSIRTSLVWYQQKPGKAPKLLIYKASDLPSGVPSRFSGSGSGTDFTLTISSLQPEDFATYYCQSYDFRDTINNGHSFGQGTKVEIKGSGSSGQPREPQVYTLPPSREEMTKNQVSLTCLVKGFYPSDIAVEWESQGSPENNYKTTPPVLDSDGSFFLYSKLTVDKSRWQQGNVFSCSVMHEALHNHYTQKSLSLSPGSSSSSSAWSHPQFEK
B8: scFv-minibody SEQ ID 50 (scFv)
scFv: B7 scFv with S63D, W64S, A65V
B9: scFv-minibody SEQ ID 51 (scFv)
scFv: B7 scFv with C36S, A50S, C51A, S63D, W64S, A65V
B10: rabbit monoclonal anti-CD95L antibody clone 119-4 (antibody, V domains shown)
VH: QSLEESGGDLVKPGGTLTLTCTTSGFSFSDHYWMCWVRQAPGKGLEWIACIYTADSDSYYASWAKGRFTISKTSSTTVTLQMTSLTAADTATYFCARNGAYAGGPYGDLWGPGTLVTVSS
VL: DIVMTQTPSSVEAAVGGTVTIKCQASQSIRTSLVWYQQKPGQPPKLLIYKASDLPSGVPSRFKGSGSGTQFTLTISDLECADAATYYCQSYDFRDTINNGHSFGGGTEVVVKG
notes: Rabbit monoclonal IgG from a hybridoma subclone, detected with anti-rabbit IgG; Only VH and VL are tied to the clone by name; also called mAb119-4
B11: scFv-minibody SEQ ID 48 (scFv)
scFv: QSLEESGGDLVKPGGTLTLTCTTSGFSFSDHYWMCWVRQAPGKGLEWIACIYTADSDSYYASWAKGRFTISKTSSTTVTLQMTSLTAADTATYFCARNGAYAGGPYGDLWGPGTLVTVSGGGSGGGSGGGSGGGSDIVMTQTPSSVEAAVGGTVTIKCQASQSIRTSLVWYQQKPGQPPKLLIYKASDLPSGVPSRFKGSGSGTQFTLTISDLESADAATYYCQSYDFRDTINNGHSFGGGTEVVVKGSGSSGQPREPQVYTLPPSREEMTKNQVSLTCLVKGFYPSDIAVEWESQGSPENNYKTTPPVLDSDGSFFLYSKLTVDKSRWQQGNVFSCSVMHEALHNHYTQKSLSLSPGSSSSSSAWSHPQFEK

Columns and labels:
APG293 (human CD95L-T4) = target: T1, APG293 (human CD95L-T4); test: cell-based or functional assay
peptide C-YMRNSKY = target: T2, peptide C-YMRNSKY; test: peptide ELISA, peptide on BSA or ovalbumin coated
Protocol: (§1) Binding of the rabbit monoclonal antibody was detected by incubation with goat anti rabbit IgG-Peroxidase (Sigma; dilution 1:5000) and subsequent detection of the converted Peroxidase-substrate TMBone at a wavelength of 450 nm in an ELISA reader (FIG. 13).
Binding of the rabbit monoclonal antibody was detected by incubation with goat anti rabbit IgG-Peroxidase (Sigma; dilution 1:5000) and subsequent detection of the converted Peroxidase-substrate TMBone at a wavelength of 450 nm in an ELISA reader (FIG. 14).

[1] = target: T3, APG296 (human CD95L-RB69); test: ELISA, APG296 coated
[2] = target: T4, epitope-comprising peptide YMRNSKYPQD; test: QCM (Attana A100), peptide-BSA immobilized, antibody as analyte
Protocol: The A100 allows to investigate molecular interactions in real-time based on the Quartz Crystal Microbalance (QCM) technique. For this purpose, the respective epitope comprising peptide was coupled to BSA and subsequently immobilized to the surface of a carboxyl-activated QCM-chip. […] Binding (kₒₙ) and dissociation (koff) was analyzed in real time, and the respective KD was calculated (see table in FIG. 16).

[3] = target: T5, epitope-comprising peptide YMRNSKYPQD; test: QCM; immobilized BSA-coupled peptide
APG707 (LIGHT-RB69) = target: T6, APG707 (LIGHT-RB69); test: competition ELISA, APG296 coated, APG707 as soluble competitor
Protocol: as §1, with “For the competition ELISA, 96-well microtiter plates were coated with 10 μg/ml APG296 (CD95L-RB69). […] Binding” for “Binding”, “antibodies” for “antibody”, “6).” for “13).”

| Binder | EC50, Assay 1: antagonism of CD95L-T4-induced apoptosis on Jurkat A3 cells (APG293 (human CD95L-T4)) | EC50, Assay 2: antagonism of CD95L-T4-induced apoptosis on Jurkat A3 cells (APG293 (human CD95L-T4)) | EC50, Assay 3: antagonism of CD95L-T4-induced apoptosis on Jurkat A3 cells (APG293 (human CD95L-T4)) | EC50, Assay 4: antagonism of CD95L-T4-induced apoptosis on Jurkat A3 cells (APG293 (human CD95L-T4)) | EC50, Mean: antagonism of CD95L-T4-induced apoptosis on Jurkat A3 cells (APG293 (human CD95L-T4)) | binding result (peptide C-YMRNSKY) | binding result [1] | binding result [2] | Kd [3] | binding result (APG707 (LIGHT-RB69)) | EC50, Assay 5: antagonism of CD95L-T4-induced apoptosis on Jurkat A3 cells (APG293 (human CD95L-T4)) | EC50, Assay 6: antagonism of CD95L-T4-induced apoptosis on Jurkat A3 cells (APG293 (human CD95L-T4)) |
| --- | --- | --- | --- | --- | --- | --- | --- | --- | --- | --- | --- | --- |
| B1 | 774 ng/mL | 789 ng/mL | 707 ng/mL | 714 ng/mL | 746 ng/mL |  |  |  |  |  |  |  |
| B2 | 187 ng/mL | 198 ng/mL | 225 ng/mL | 192 ng/mL | 201 ng/mL | no binding (tested: 2 µg/ml) | binds | binds | 7.22 nM | no binding (tested: 100 µg/ml) |  |  |
| B3 | 118 ng/mL | 114 ng/mL |  |  | 110 ng/mL |  |  |  |  |  | 95.7 ng/mL | 111 ng/mL |
| B4 | 99.4 ng/mL | 105 ng/mL |  |  | 93 ng/mL |  |  |  |  |  | 86.5 ng/mL | 83.4 ng/mL |
| B5 | 532 ng/mL | 591 ng/mL |  |  | 599 ng/mL |  |  |  |  |  | 701 ng/mL | 571 ng/mL |
| B6 | 124 ng/mL | 117 ng/mL |  |  | 118 ng/mL |  |  |  |  |  | 113 ng/mL | 118 ng/mL |
| B7 |  |  | 172 ng/mL | 144 ng/mL | 140 ng/mL |  |  |  |  |  | 117 ng/mL | 127 ng/mL |
| B8 |  |  | 169 ng/mL | 136 ng/mL | 143 ng/mL |  |  |  |  |  | 128 ng/mL | 140 ng/mL |
| B9 |  |  | 1550 ng/mL | 2260 ng/mL | 1760 ng/mL |  |  |  |  |  | 1480 ng/mL | 1740 ng/mL |
| B10 |  |  |  |  |  | no binding (tested: 2 µg/ml) |  | binds | 1.2 nM | no binding (tested: 100 µg/ml) |  |  |
| B11 |  |  | 116 ng/mL | 90.8 ng/mL | 97 ng/mL |  |  |  |  |  | 84.4 ng/mL | 97.5 ng/mL |
